Publication PMC5762521

Molecular target: T1, Heat shock transcription factor-1 (HSF-1) (human (endogenous in HCT-116)), Q00613
T1 chain: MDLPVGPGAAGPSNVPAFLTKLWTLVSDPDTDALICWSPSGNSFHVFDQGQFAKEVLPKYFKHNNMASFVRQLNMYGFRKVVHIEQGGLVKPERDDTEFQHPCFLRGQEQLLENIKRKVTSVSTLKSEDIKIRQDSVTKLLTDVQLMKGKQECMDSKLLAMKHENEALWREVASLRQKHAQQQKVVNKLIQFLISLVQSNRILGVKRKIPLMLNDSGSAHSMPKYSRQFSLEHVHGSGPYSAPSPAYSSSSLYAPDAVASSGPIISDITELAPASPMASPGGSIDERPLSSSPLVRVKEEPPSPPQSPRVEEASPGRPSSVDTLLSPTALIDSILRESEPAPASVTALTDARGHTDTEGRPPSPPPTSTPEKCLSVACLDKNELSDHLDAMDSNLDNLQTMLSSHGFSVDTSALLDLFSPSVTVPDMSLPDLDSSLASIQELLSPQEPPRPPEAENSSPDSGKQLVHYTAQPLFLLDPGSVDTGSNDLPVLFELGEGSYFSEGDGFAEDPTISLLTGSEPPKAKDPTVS
Assay: cross-linking; HCT-116 cell lysates (control, heat shock, vitexin-treated); 10 ug protein with 2 mM glutaraldehyde, room temperature, 30 min, stopped with lysine; SDS-PAGE and anti-HSF-1 blot; vitexin treatment said to inhibit oligomerization
Details: remark: other sources report otherwise

B1: Heat shock transcription factor-1 (HSF-1), Q00613 1-529 (natural protein)
chain: MDLPVGPGAAGPSNVPAFLTKLWTLVSDPDTDALICWSPSGNSFHVFDQGQFAKEVLPKYFKHNNMASFVRQLNMYGFRKVVHIEQGGLVKPERDDTEFQHPCFLRGQEQLLENIKRKVTSVSTLKSEDIKIRQDSVTKLLTDVQLMKGKQECMDSKLLAMKHENEALWREVASLRQKHAQQQKVVNKLIQFLISLVQSNRILGVKRKIPLMLNDSGSAHSMPKYSRQFSLEHVHGSGPYSAPSPAYSSSSLYAPDAVASSGPIISDITELAPASPMASPGGSIDERPLSSSPLVRVKEEPPSPPQSPRVEEASPGRPSSVDTLLSPTALIDSILRESEPAPASVTALTDARGHTDTEGRPPSPPPTSTPEKCLSVACLDKNELSDHLDAMDSNLDNLQTMLSSHGFSVDTSALLDLFSPSVTVPDMSLPDLDSSLASIQELLSPQEPPRPPEAENSSPDSGKQLVHYTAQPLFLLDPGSVDTGSNDLPVLFELGEGSYFSEGDGFAEDPTISLLTGSEPPKAKDPTVS
  stoichiometry N: 3
